# Laboratory results published in publication PMC4434323.
# Target: T1, F55C5.11 (F55C5.11) (Caenorhabditis elegans) (UniProt Q1ZXU0)
# T1 sequence: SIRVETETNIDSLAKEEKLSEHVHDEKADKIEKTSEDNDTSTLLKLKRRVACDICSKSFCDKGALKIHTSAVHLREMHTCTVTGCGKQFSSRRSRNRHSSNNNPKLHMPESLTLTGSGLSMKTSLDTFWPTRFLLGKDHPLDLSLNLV
row,Sequence,binding signal (PBM E-score (-0.5 to 0.5))
1,AGGTGACA (double strand) [8-mer AGGTGACA],0.486
2,AGTGTCAC (double strand) [8-mer AGTGTCAC],0.487
3,ATGTGACA (double strand) [8-mer ATGTGACA],0.489
4,CGGTGACA (double strand) [8-mer CGGTGACA],0.488
5,CTGTCACC (double strand) [8-mer CTGTCACC],0.487
6,GGGTGACA (double strand) [8-mer GGGTGACA],0.494
7,GGTGACAA (double strand) [8-mer GGTGACAA],0.487
8,GGTGACAC (double strand) [8-mer GGTGACAC],0.496
9,GGTGTCAC (double strand) [8-mer GGTGTCAC],0.486
10,GTGACAAA (double strand) [8-mer GTGACAAA],0.484
11,GTGTCACA (double strand) [8-mer GTGTCACA],0.488
12,GTGTGACA (double strand) [8-mer GTGTGACA],0.486
13,TGGTGACA (double strand) [8-mer TGGTGACA],0.487
14,TGTGACAA (double strand) [8-mer TGTGACAA],0.485

# Target: T2, K11D2.4 (K11D2.4) (Caenorhabditis elegans) (UniProt G5EBU1)
# T2 sequence: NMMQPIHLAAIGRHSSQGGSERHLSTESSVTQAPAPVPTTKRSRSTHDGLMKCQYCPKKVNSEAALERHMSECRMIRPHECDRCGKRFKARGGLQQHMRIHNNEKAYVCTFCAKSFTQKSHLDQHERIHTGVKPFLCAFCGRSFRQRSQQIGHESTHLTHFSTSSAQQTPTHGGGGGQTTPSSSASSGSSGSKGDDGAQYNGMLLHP
row,Sequence,binding signal (PBM E-score (-0.5 to 0.5))
1,AAAAAACA (double strand) [8-mer AAAAAACA],0.495
2,AAAAAAGA (double strand) [8-mer AAAAAAGA],0.495
3,AAAAAAGT (double strand) [8-mer AAAAAAGT],0.494
4,AATAAAAA (double strand) [8-mer AATAAAAA],0.496
5,ACAAAAAA (double strand) [8-mer ACAAAAAA],0.494
6,CGAAAAAA (double strand) [8-mer CGAAAAAA],0.495

# Target: T3, M03D4.4 (M03D4.4) (Caenorhabditis elegans) (UniProt Q21494)
# T3 sequence: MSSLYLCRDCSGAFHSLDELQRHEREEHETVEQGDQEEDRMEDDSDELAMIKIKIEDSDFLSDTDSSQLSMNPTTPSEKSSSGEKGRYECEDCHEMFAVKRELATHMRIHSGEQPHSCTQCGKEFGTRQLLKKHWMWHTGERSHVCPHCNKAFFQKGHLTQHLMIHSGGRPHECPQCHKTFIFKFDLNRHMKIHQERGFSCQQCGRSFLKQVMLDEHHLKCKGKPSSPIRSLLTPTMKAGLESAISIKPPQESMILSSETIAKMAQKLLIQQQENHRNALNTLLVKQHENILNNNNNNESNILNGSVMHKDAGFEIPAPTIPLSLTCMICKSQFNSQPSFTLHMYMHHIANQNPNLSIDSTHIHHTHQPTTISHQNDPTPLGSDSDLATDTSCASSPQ
row,Sequence,binding signal (PBM E-score (-0.5 to 0.5))
1,AATGCATG (double strand) [8-mer AATGCATG],0.494
2,ACATGCAT (double strand) [8-mer ACATGCAT],0.491
3,ACGCATGA (double strand) [8-mer ACGCATGA],0.495
4,ATCATGCA (double strand) [8-mer ATCATGCA],0.497
5,ATGCATGA (double strand) [8-mer ATGCATGA],0.499
6,ATGCATGC (double strand) [8-mer ATGCATGC],0.491
7,CATGCATG (double strand) [8-mer CATGCATG],0.498
8,CGCATGAA (double strand) [8-mer CGCATGAA],0.491
9,GATCATGC (double strand) [8-mer GATCATGC],0.493
10,GCATGGAA (double strand) [8-mer GCATGGAA],0.491
11,GTCATGCA (double strand) [8-mer GTCATGCA],0.495
12,GTGCATGA (double strand) [8-mer GTGCATGA],0.494
13,TCATGCAA (double strand) [8-mer TCATGCAA],0.493
14,TCCATGCA (double strand) [8-mer TCCATGCA],0.491
15,TGCATGAA (double strand) [8-mer TGCATGAA],0.495

# Target: T4, T22C8.4 (T22C8.4) (Caenorhabditis elegans) (UniProt Q22677)
# T4 sequence: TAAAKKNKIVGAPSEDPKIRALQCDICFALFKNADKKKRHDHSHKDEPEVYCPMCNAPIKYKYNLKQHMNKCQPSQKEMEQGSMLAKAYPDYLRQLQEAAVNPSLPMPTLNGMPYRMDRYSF
row,Sequence,binding signal (PBM E-score (-0.5 to 0.5))
1,ACCCCTGC (double strand) [8-mer ACCCCTGC],0.494
2,ACCCTGCT (double strand) [8-mer ACCCTGCT],0.487
3,AGCAGGGA (double strand) [8-mer AGCAGGGA],0.466
4,AGCAGGGG (double strand) [8-mer AGCAGGGG],0.499
5,CACCCTGC (double strand) [8-mer CACCCTGC],0.49
6,CAGCAGGG (double strand) [8-mer CAGCAGGG],0.494
7,CCCCCTGC (double strand) [8-mer CCCCCTGC],0.488
8,CCCCTGCA (double strand) [8-mer CCCCTGCA],0.493
9,CCCCTGCC (double strand) [8-mer CCCCTGCC],0.479
10,CCCCTGCG (double strand) [8-mer CCCCTGCG],0.493
11,CCCTGCAG (double strand) [8-mer CCCTGCAG],0.483

# Target: atf-7 (C07G2.2) (Caenorhabditis elegans) (UniProt Q86MD3)
# Sequence (Q86MD3 339-508): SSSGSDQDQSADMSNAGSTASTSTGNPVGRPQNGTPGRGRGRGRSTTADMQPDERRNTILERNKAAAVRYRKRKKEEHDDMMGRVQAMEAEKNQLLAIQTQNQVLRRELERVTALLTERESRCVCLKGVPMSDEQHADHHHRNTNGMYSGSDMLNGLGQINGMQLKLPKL
row,Sequence,binding signal (PBM E-score (-0.5 to 0.5))
1,ACGTCACC (double strand) [8-mer ACGTCACC],0.496
2,ACGTCACT (double strand) [8-mer ACGTCACT],0.496
3,ATACGTCA (double strand) [8-mer ATACGTCA],0.494
4,CACGTCAC (double strand) [8-mer CACGTCAC],0.496

# Target: T5, bed-3 (F25H8.6) (Caenorhabditis elegans) (UniProt Q19787)
# T5 sequence: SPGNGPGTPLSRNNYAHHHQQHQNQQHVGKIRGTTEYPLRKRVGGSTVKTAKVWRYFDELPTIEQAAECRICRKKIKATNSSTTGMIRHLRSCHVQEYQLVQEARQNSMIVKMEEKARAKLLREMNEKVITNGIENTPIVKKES
row,Sequence,binding signal (PBM E-score (-0.5 to 0.5))
1,ACTCCCGA (double strand) [8-mer ACTCCCGA],0.49
2,ACTCTCGA (double strand) [8-mer ACTCTCGA],0.49
3,AGTCTCGA (double strand) [8-mer AGTCTCGA],0.494
4,ATCTCGAG (double strand) [8-mer ATCTCGAG],0.497
5,CCTCGAGA (double strand) [8-mer CCTCGAGA],0.492
6,CTCGAGAA (double strand) [8-mer CTCGAGAA],0.491
7,CTCGAGAC (double strand) [8-mer CTCGAGAC],0.497
8,CTCGAGAG (double strand) [8-mer CTCGAGAG],0.493
9,GATCCCGA (double strand) [8-mer GATCCCGA],0.49
10,GATCTCGA (double strand) [8-mer GATCTCGA],0.493
11,GCTCTCGA (double strand) [8-mer GCTCTCGA],0.491
12,GGTCTCGA (double strand) [8-mer GGTCTCGA],0.491
13,TCCCGAGA (double strand) [8-mer TCCCGAGA],0.493
14,TCCCGGGA (double strand) [8-mer TCCCGGGA],0.491
15,TCTCGAGA (double strand) [8-mer TCTCGAGA],0.499

# Target: T6, ztf-27 (T09F3.1) (Caenorhabditis elegans) (UniProt G5EDA0)
# T6 sequence: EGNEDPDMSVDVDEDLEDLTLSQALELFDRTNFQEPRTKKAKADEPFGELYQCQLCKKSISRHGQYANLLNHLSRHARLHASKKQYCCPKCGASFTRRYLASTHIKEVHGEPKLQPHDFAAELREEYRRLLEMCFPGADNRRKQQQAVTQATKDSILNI
row,Sequence,binding signal (PBM E-score (-0.5 to 0.5))
1,AATGGTGT (double strand) [8-mer AATGGTGT],0.477
2,ACACCAAT (double strand) [8-mer ACACCAAT],0.478
3,ACACCATA (double strand) [8-mer ACACCATA],0.479
4,ATGGTGCA (double strand) [8-mer ATGGTGCA],0.487
5,ATGGTGTA (double strand) [8-mer ATGGTGTA],0.485
6,ATGGTGTG (double strand) [8-mer ATGGTGTG],0.477
7,GTGCACCA (double strand) [8-mer GTGCACCA],0.484
8,TACACCAA (double strand) [8-mer TACACCAA],0.483
9,TACACCCA (double strand) [8-mer TACACCCA],0.477
10,TACGCCAA (double strand) [8-mer TACGCCAA],0.48
11,TGCACCAA (double strand) [8-mer TGCACCAA],0.488
12,TGCGCCAA (double strand) [8-mer TGCGCCAA],0.478
13,TGGTGCAA (double strand) [8-mer TGGTGCAA],0.483
14,TGGTGTAA (double strand) [8-mer TGGTGTAA],0.48
